First the molecules themselves.
B1: PRT-550 (protein)
chain: MANQEIRYSEETPKTITSIWTKGVTPPTDFIKNEDVLHAPYIANQGWYDITKTFNGKDDLLCGAATAGNMLHWWFDQNKEEIENYLKKHPEKQKINFNGEQMFDVKEAIDTKDSQTDSKLFEYFKDKAFPYLSTKHLGVFPDHVIDMFINGYRLSLTNHGPTPVKRGTKDPRGGIFDAVFTRGDQSKLLTARHDFKEKTLNEISDLIKQELTEGKALGLSHTYANVRINHVINLWGADFNSEGNLEAIYVTDSDSNASIGMKKYYVGVNAAGKVAISAKEIEGDNIGAQVLGLFTLSTGQDIWNQTNLEHHHHHH
B2: PRT-627 (protein)
chain: MQITSVWTKGVTPLTPEQFRYNNEDVIHAPYLAHQGWYDITKAFDGKDNLLCGAATAGNMLHWWFDQNKEEIEAYLKKYGETQKIIFNNQELFDLKAAIDTKDSQTNSQLFNYFRDKAFPNLSARQLGVMPDLVLDMFINGYYLNVFKTQSTDVNRPYQDKDKRGGIFDAVFTRGDQTTLLTARHDLKNKGLNDISTIIKQELTEGRALALSHTYANVSISHVINLWGADFNAEGNLEAIYVTDSDANASIGMKKYFVGINAHGHVAISAKKIEGENIGAQVLGLFTLSSGKDIWQKLSLEHHHHHH
B3: PRT-572 (protein)
chain: MANQEIRYSEATPSHITSVWTKGVTPPTQFIQNEDVLHAPYIANQGWYDITKTFNGKDDLLCGAATAGNMLHWWFDQNKEQIENYLKKHPEKQKINFNGEQMFDVKEAIDTKDSQTDSALFSYFKDKAFPYLSTKHLGVFPDHVIDMFINGYRLSLTNHGPTPVKEQTKDPRGGIFDAVFTRGDQSKLLTSRHDFKEKTLNEISQLIKQELTEGKALGLSHTYANVRINHVINLWGADFNAEGNLEAIYVTDSDSNASIGMKKYYVGVNSAGKVAISAKEIEGDNIGAQVLGLFTLSTGQDIWQQTNLEHHHHHH
B4: PRT-678 (protein)
chain: MQITTVWTKGVTPLTPEQFRYNNEEVIHAPYKAGQGWYDITKVFDGKDNLLCGAATAGNMLHWWFDQNKTEIEAYLSKHPEKQKIIFNNQELFDLKRAIDDKDSQTNSQLFNYFRDKAFPNLSARQLGVMPDLVLDMFINGYYLNVFKTQSTDVNRPYQDPDKRGGIFDDVFGKGDQTTLLTARHDLKNLGLEDISTIIKQELRNGRALALSHTYANVSISHVINLWGADFNAEGNLSAIYVTDSDANNSIGMKKYKVGYNAHGRVAISAKKIEGENIGAQVLGLFTLSSGKDIWQKLSLEHHHHHH
B5: PRT-4 (protein)
chain: MANQEIRYSEVTPYHVTSVWTKGVTPPANFTQGEDVFHAPYVANQGWYDITKTFNGKDDLLCGAATAGNMLHWWFDQNKEQIERYLKEHPEKQKINFNGEQMFDVKEAIDTKDSQLDSKLFEYFKEKAFPYLSTKHLGVFPDHVIDMFINGYRLSLTNHGPTPVKEGSKDPRGGIFDAVFTRGDQSKLLTSRHDFKEKNLKEISDLIKKELTEGKALALSHTYANVRINHVINLWGADFDSNGNLKAIYVTDSDSNASIGMKKYFVGVNSAGKVAISAKEIKEDNIGAQVLGLFTLSTGQDIWNQTN
B6: PRT-57 (protein)
chain: MANQEIRYSEVTPYHVTSVWTKGVTPPANFTQGEDVFHAPYVANQGWYDINKTFNGKDDLLCGAATAGNMLHWWFDQNKDYIDRYLEEHPEKQKINFNGEQMFDVKEAIDTKNHQLDSKLFEYFKEKAFPYLSTKHLGVFPDLVIDMFINGYRLSLTNHGPTPVKEGSKDPRGGFFDAVFGRGDQSKLLTSRHDFKEKNLKEISDLIKKELTEGKALGLSHTYANVRINHVINLWGADFDSNGNLKAIYVTDSDSNASIGMKKYFVGVNSAGKVAISAKEIKEDNIGAQVLGLFTLSTGQDSWNQTN
B7: PRT-64 (protein)
chain: MANQEIRYSEVTPYHVTSVWTKGVTPPANFTQGEDVFHAPYVANQGWYDITKTFNGKDDLLCGAATAGNMLHWWFDQNKDQIDRYLEEHPEKQKINFNGEQMFDVKEAIDTKNHQLDSKLFEYFKEKAFPYLSTKHLGVFPDHVIDMFINGYRLSLTNHGPTPVKEGSKDPRGGIFDAVFTRGDQSKLLTSRHDFKEKNLKEISDLIKKELTEGKALGLSHTYANVRINHVINLWGADFDSNGNLKAIYVTDSDSNASIGMKKYFVGVNSAGKVAISAKEIKEDNIGAQVLGLFTLSTGQDSWNQTN
B8: PRT-58 (protein)
chain: MANQEIRYSEVTPYHVTSVWTKGVTPPANFTQGEDVFHAPYVANQGWYDINKTFNGKDDLLCGAATAGNMLHWWFDQNKEYIDRYLKEHPEKQKINFNGEQMFDVKEAIDTKNHQLDSKLFEYFKEKAFPYLSTKHLGVFPDLVLDMFINGYRLSLTNHGPTPVKEGSKDPRGGFFDDVFTRGDQSKLLTSRHDFKEKNLKEISDLIKKELTEGKALGLSHTYANVRINHVINLWGADFDSNGNLKAIYVTDSDSNASIGMKKYFVGVNSAGKVAISAKEIKEDNIGAQVLGLFTLSTGQDSWNQTN
B9: PRT-61 (protein)
chain: MANQEIRYSEVTPYHVTSVWTKGVTPPANFTQGEDVFHAPYVANQGWYDINKTFNGKDDLLCGAATAGNMLHWWFDQNKEYIKRYLEEHPEKQKINFNGEQMFDVKEAIDTKNHQLDSKLFEYFKEKAFPYLSTKHLGVFPDHVLDMFINGYRLSLTNHGPTPVKEGSKDPRGGIFDAVFTRGDQSKLLTSRHDFKEKNLKEISDLIKKELTEGKALGLSHTYANVRINHVINLWGADFDSNGNLKAIYVTDSDSNASVGMKKYFVGVNSAGKVAISAKEIKEDNIGAQVLGLFTLSTGQDSWNQTN
B10: PRT-63 (protein)
chain: MANQEIRYSEVTPYHVTSVWTKGVTPPANFTQGEDVFHAPYVANQGWYDITKTFNGKDDLLCGAATAGNMLHWWFDQNKEQIKRYLKEHPEKQKINFNGEQMFDVKEAIDTKNHQLDSKLFEYFKEKAFPYLSTKHLGVFPDHVLDMFINGYRLSLTNHGPTPVKEGSKDPRGGIFDDVFTRGDQSKLLTSRHDFKEKNLKEISDLIKKELTEGKALGLSHTYANVRINHVINLWGADFDSNGNLKAIYVTDSDSNASIGMKKYFVGVNSAGKVAISAKEIKEDNIGAQVLGLFTLSTGQDSWNQTN
B11: PRT-60 (protein)
chain: MANQEIRYSEVTPYHVTSVWTKGVTPPANFTQGEDVFHAPYVANQGWYDITKTFNGKDDLLCGAATAGNMLHWWFDQNKDQIKRYLEEHPEKAKINFNGEQMFDVKEAIDTKNHQLDSKLFEYFKEKAFPYLSTKHLGVFPDHVIDMFINGYRLSLTNHGPTPVKEGSKDPRGGIFDAVFGRGDQSKLLTSRHDFKEKNLKEISDLIKKELTEGKALGLSHTYANVRINHVINLWGADFDSNGNLKAIYVTDSDSNASIGMKKYFVGVNSAGKVAISAKEIKEDNIGAQVLGLFTLSTGQDSWNQTN
B12: PRT-59 (protein)
chain: MANQEIRYSEVTPYHVTSVWTKGVTPPANFTQGEDVFHAPYVANQGWYDITKTFNGKDDLLCGAATAGNMLHWWFDQNKDQIKRYLEEHPEKQKINFNGEQMFDVKEAIDTKNHQLDSKLFEYFKEKAFPYLSTKHLGVFPDHVIDMFINGYRLSLTNHGPTPVKEGSKDPRGGFFDAVFTRGDQSKLLTSRHDFKEKNLKEISDLIKKELTEGKALGLSHTYANVRINHVINLWGADFDSNGNLKAIYVTDSDSNASIGMKKYFVGVNSAGKVAISAKEIKEDNIGAQVLGLFTLSTGQDSWNQTN
B13: PRT-62 (protein)
chain: MANQEIRYSEVTPYHVTSVWTKGVTPPANFTQGEDVFHAPYVANQGWYDITKTFNGKDDLLCGAATAGNMLHWWFDQNKDQIKRYLEEHPEKQKINFNGEQMFDVKEAIDTKNHQLDSKLFEYFKEKAFPYLSTKHLGVFPDHVIDMFINGYRLSLTNHGPTPVKEGSKDPRGGIFDAVFGRGDQSKLLTSRHDFKEKNLKEISDLIKKELTEGKALGLSHTYANVRINHVINLWGADFDSNGNLKAIYVTDSDSNASIGMKKYFVGVNSAGKVAISAKEIKEDNIGAQVLGLFTLSTGQDSWNQTN

The data set has as its target pooled human IgG.
As for B1, the Enzyme Activity Endpoint Assay (purified): Fab′2 came out at 891 ng/µL, the Enzyme Activity Endpoint Assay (purified): Fc worked out at 389 ng/µL, the Enzyme Activity Endpoint Assay (purified): IgG came out at 0 ng/µL and the Enzyme Activity Endpoint Assay (purified): scIgG was determined as 0 ng/µL.

Protein B2 yielded an Enzyme Activity Endpoint Assay (purified): Fab′2 of 767 ng/µL, an Enzyme Activity Endpoint Assay (purified): Fc of 415 ng/µL, an Enzyme Activity Endpoint Assay (purified): IgG of 124 ng/µL and an Enzyme Activity Endpoint Assay (purified): scIgG of 187 ng/µL.

In turn, B3 registered an Enzyme Activity Endpoint Assay (purified): Fab′2 of 936 ng/µL, an Enzyme Activity Endpoint Assay (purified): Fc of 478 ng/µL, an Enzyme Activity Endpoint Assay (purified): IgG of 0 ng/µL and an Enzyme Activity Endpoint Assay (purified): scIgG of 0 ng/µL.

Protein B4 gave an Enzyme Activity Endpoint Assay (purified): Fab′2 of 56 ng/µL, an Enzyme Activity Endpoint Assay (purified): Fc of 0 ng/µL, an Enzyme Activity Endpoint Assay (purified): IgG of 39 ng/µL and an Enzyme Activity Endpoint Assay (purified): scIgG of 0 ng/µL.

Protein B5 registered an Enzyme Activity Endpoint Assay: Fab′2 of 21 ng/µL, an Enzyme Activity Endpoint Assay: Fc of 97 ng/µL, an Enzyme Activity Endpoint Assay: IgG of 23 ng/µL and an Enzyme Activity Endpoint Assay: scIgG of 42 ng/µL.

The protein B6 came in with an Enzyme Activity Endpoint Assay (purified): Fab′2 of 0 ng/µL, an Enzyme Activity Endpoint Assay (purified): Fc of 52 ng/µL, an Enzyme Activity Endpoint Assay (purified): IgG of 44 ng/µL and an Enzyme Activity Endpoint Assay (purified): scIgG of 55 ng/µL.

In the case of B7, the Enzyme Activity Endpoint Assay (purified): Fab′2 came out at 50 ng/µL, the Enzyme Activity Endpoint Assay (purified): Fc is 123 ng/µL, the Enzyme Activity Endpoint Assay (purified): IgG was determined as 16 ng/µL and the Enzyme Activity Endpoint Assay (purified): scIgG is 17 ng/µL.

Consider B8, for which the Enzyme Activity Endpoint Assay (purified): Fab′2 worked out at 0 ng/µL, the Enzyme Activity Endpoint Assay (purified): Fc came out at 9 ng/µL, the Enzyme Activity Endpoint Assay (purified): IgG is 125 ng/µL and the Enzyme Activity Endpoint Assay (purified): scIgG was determined as 1 ng/µL.

Protein B9 displayed an Enzyme Activity Endpoint Assay (purified): Fab′2 of 0 ng/µL, an Enzyme Activity Endpoint Assay (purified): Fc of 55 ng/µL, an Enzyme Activity Endpoint Assay (purified): IgG of 52 ng/µL and an Enzyme Activity Endpoint Assay (purified): scIgG of 50 ng/µL.

In turn, B10 returned an Enzyme Activity Endpoint Assay (purified): Fab′2 of 44 ng/µL, an Enzyme Activity Endpoint Assay (purified): Fc of 120 ng/µL, an Enzyme Activity Endpoint Assay (purified): IgG of 13 ng/µL and an Enzyme Activity Endpoint Assay (purified): scIgG of 19 ng/µL.

In the case of B11, the Enzyme Activity Endpoint Assay (purified): Fab′2 is 52 ng/µL, the Enzyme Activity Endpoint Assay (purified): Fc is 133 ng/µL, the Enzyme Activity Endpoint Assay (purified): IgG came out at 16 ng/µL and the Enzyme Activity Endpoint Assay (purified): scIgG worked out at 16 ng/µL.

Take B12: the Enzyme Activity Endpoint Assay (purified): Fab′2 is 6 ng/µL, the Enzyme Activity Endpoint Assay (purified): Fc was determined as 70 ng/µL, the Enzyme Activity Endpoint Assay (purified): IgG came to 8 ng/µL and the Enzyme Activity Endpoint Assay (purified): scIgG turned out to be 56 ng/µL.

Take B13: the Enzyme Activity Endpoint Assay (purified): Fab′2 was 15 ng/µL, the Enzyme Activity Endpoint Assay (purified): Fc came out at 94 ng/µL, the Enzyme Activity Endpoint Assay (purified): IgG came to 8 ng/µL and the Enzyme Activity Endpoint Assay (purified): scIgG is 56 ng/µL.

The record behind these values is patent US20250027068.
